According to patent US9803012B2, “Compositions and methods for regulating SAS1R” (UNIVERSITY OF VIRGINIA PATENT FOUNDATION, priority 2005, dated 2017):

How the values were obtained:
[1] = tested on: mouse sperm-egg fusion; conditions: cited from earlier work
[2] = tested on: oolemma; conditions: sea urchin; cited from earlier work
[3] = tested on: Metaphase II eggs; experiment: Egg labeling by indirect immunofluorescence; assay type: cell-based, mouse; conditions: 100 μg/ml protein, 45 min
Method: Metaphase II eggs were obtained as previously described (Coonrod et al, 1999) and incubated with 5% NGS/media for 30 min. Oocytes were washed five times in TYH medium and incubated with 100 μg/ml recmSLLP1 or 100 μg/ml lysozymes for 45 min at 37° C. and 5% CO2. Oocytes were washed five times and incubated with guinea pig anti-recmSLLP1 polyclonal antibody (1:50), sheep anti-human lysozyme (1:25) or rabbit anti-chicken lysozyme (1:400) in 5% NGS/media for 1 h at 37° C. and 5% CO2. Oocytes were washed five times and incubated with donkey anti-guinea pig/Texas Red antibody (1:200) or goat anti-guinea pig/FITC antisera 1:200), donkey anti-sheep and goat anti-rabbit FITC-labeled secondary antibody (1:200) (Jackson ImmunoResearch), respectively in 5% NGS/media for 1 h at […] 37° C. and 5% CO2. Oocytes were washed and mounted in media onto glass slides and visualized under a Zeiss Standard 18 ultraviolet microscope. Images were captured by using MrGrab 1.0 (Carl Zeiss Vision GmbH, Germany).

[4] = target: T1, fluorescent tagged synthetic peptide (Mus musculus, UniProt Q6HA09); experiment: Protease activity assay of SAS1R (EnzChek Peptidase/Protease Assay Kit, FRET); assay type: biochemical
T1 construct: The mature rSAS1R (414 residues); 20 vector-encoded residues including His6 (pET-28b) (N); made in house; host or cells: E. coli BL21DE3
T1 sequence (Q6HA09 22-435): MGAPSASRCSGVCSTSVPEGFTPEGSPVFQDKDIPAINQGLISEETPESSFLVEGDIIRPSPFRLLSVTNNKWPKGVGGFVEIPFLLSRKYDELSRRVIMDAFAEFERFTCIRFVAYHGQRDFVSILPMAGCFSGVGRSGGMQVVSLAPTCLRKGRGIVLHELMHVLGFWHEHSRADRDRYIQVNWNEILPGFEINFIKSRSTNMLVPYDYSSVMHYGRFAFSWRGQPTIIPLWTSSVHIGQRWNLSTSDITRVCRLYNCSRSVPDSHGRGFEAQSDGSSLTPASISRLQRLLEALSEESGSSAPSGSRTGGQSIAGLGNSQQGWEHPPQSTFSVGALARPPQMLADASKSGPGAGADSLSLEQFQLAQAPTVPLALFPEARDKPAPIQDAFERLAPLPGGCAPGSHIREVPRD
Method: Protease activity was assayed with purified soluble rSAS1R using the EnzChek® Peptidase/Protease Assay Kit.
Protease activity was assayed in serial dilutions (0-2000 ng) of purified bacterial recombinant SAS1R using the EnzChek® Peptidase/Protease Assay Kit (Molecular Probes, OR), which provides a FRET (fluorescence resonance energy transfer)-based method for quantitation of a wide range of protease activities. This assay was performed in 100 μl size reactions and repeated three times with varying concentrations of recombinant SAS1R. Fluorescence was measured over 24 h following the manufacturer's protocol. Protease activity of recombinant SAS1R appeared within 1 h and increased within 24 h. SLLP1 was used as a negative control. The assay method was validated using purified trypsin as a positive control (Sigma, MO).

[5] = tested on: capacitated sperm; experiment: Co-localization of rSAS1R binding sites and SLLP1 on sperm; assay type: cell-based, mouse; conditions: capacitated sperm incubated with rSAS1R, probed with both antibodies
Method: Zona intact-, zona free oocytes, early embryos and sperm were collected as before (10), blocked and probed with 1st and 2nd antibody and imaged with UV-microscopy. For co-LC studies, gametes were incubated with soluble rSAS1R or rSLLP1, washed, probed with 1st- and 2nd antibodies and imaged with UV-microscopy.
Similarly capacitated mouse sperm were also examined for co-localization of SAS1R binding sites and SLLP1 localization. Sperms were incubated with increasing concentrations (0-100 μg/ml) of rSAS1R for 1 h, then sperm were washed two times at 700 g for 8 min and droplets were made on glass slide. These droplets were air-dried for 30 min and rehydrated again with 20 μl of PBS for 5 min. Now in the droplets, sperm were fixed with 20 μl of 4% paraformaldehyde for 25 min and then washed with 20 μl of PBS thrice for 5 min each. Now the droplets were blocked with 10% NGS for 30 min and incubated with guinea pig anti-rSAS1R polyclonal antibody (1:200) and rat anti-rSLLP1 polyclonal antibody (1:200) simultaneously, in 0.1% NGS/media for 1 h at 37° C. and 5% CO2. All the droplets were washed three times and incubated with goat anti-guinea pig/Cy3 red antibody (1:200, Jackson ImmunoResearch, PA) and goat anti-rat/FITC green antibody (1:200, Jackson ImmunoResearch, PA), in 0.1% NGS/media for 1 h at 37° C. and 5% CO2. Sperms were washed and mounted in media on glass slides. […]

[6] = tested on: cumulus intact oocytes; experiment: Mouse in vitro fertilization, capacitated sperm pre-incubated with rSAS1R; assay type: cell-based
Method: Epididymal sperm from sexually mature and oocytes from 6 to 8 weeks old ICR mice were used for gamete studies and IVF. Capacitated sperm in presence or absence of rSAS1R were used to inseminate cumulus intact oocytes and fertilization was scored by counting two cell embryos.
ICR mice were used in all experiments. Suspensions of epididymal spermatozoa from sexually mature male mice were prepared for insemination of isolated oocytes. Oocytes were obtained from 6 to 8 weeks old females superovulated with 10 IU PMSG and 10 IU hCG, injected intraperitoneally at 48 h intervals. Females were killed 16 h after hCG injection, and both oviducts were immediately removed, placed in mineral oil, and flushed to recover oocytes.
In vitro fertilization was conducted with cumulus intact oocytes using sperm dispersed from cauda epididymides. Sperm were placed for 5 min in 200 μl drops of fertilization medium under paraffin oil. […] The eggs were then placed in 5 μl of fertilization medium between a microscope slide and an elevated coverslip, and visualized at 160× using light and fluorescence microscopy (Zeiss Axioplan). Two-cell embryos were scored as fertilized, while one-celled oocytes were scored as unfertilized.

[7] = tested on: zona-free mouse eggs; experiment: In vitro fertilization with zona-free eggs (sperm-oolemma binding and fusion); assay type: cell-based; conditions: 25 μg of human SLLP1
Method: For the sperm-oolemma binding assay, two cauda epididymides were placed in 900 μl drops of fertilization medium under paraffin oil for the dense mass of spermatozoa to flow freely for ˜15 min and then diluted at 1×10^6/ml for 3 h of capacitation. Cumulus oocyte complexes were placed in 200 μl drops of TYH medium under paraffin oil. Cumulus cells were removed by treating the oocytes for 3 min with 1 mg/ml hyaluronidase in TYH medium and then washed 8 times in 50 μl drops. Zona pellucidae were loosened by treating the oocytes with 10 μg/ml chymotrypsin in TYH media for 1 min and loosened zonae were removed by mechanical agitation using a pulled Pasteur pipette. The oocytes were then washed 10 times and allowed to recover from chymotrypsin treatment by incubating in TYH media for 3 h, following which, they were stained with 10 μg/ml Hoechst dye for 10 min, and then gently washed. […]
To compare the effects of recmSLLP1 with human and chicken c lysozymes, spermatozoa were first incubated under standard capacitating conditions. Oocytes were pre-incubated for 45 min before insemination with recmSLLP1 (0.1 to 200 μg/ml) or with hSLLP1 (25 μg/ml) or with chicken or human lysozyme (50 μg/ml, 100 μg/ml). Untreated capacitated sperm were then added to the incubation drops containing the treated eggs with a final sperm concentration of 2.5×10^4/ml. Thus, in all the experiments performed the sera, the recombinant protein, or the lysozyme was present in the incubation droplet during gamete interaction. After 30 min of gamete co-incubation, oocytes were gently washed 5 times in TYH medium and placed between a microscope slide and an elevated coverslip and visualized at 160×. Binding to the oocyte was scored by counting the number of bound spermatozoa per oocyte using phase contrast. Fusion with the egg was scored by counting the number of decondensed sperm heads within each oocyte using fluorescence microscopy.

[8] = tested on: mouse eggs; experiment: Binding of SLLP2 to mouse eggs; assay type: cell-based; conditions: human SLLP2
Method: To analyze the biologic activity of human SLLP2, it was determined whether it would bind to an egg, in this case, a mouse egg.
For comparison to the use of human sperm SLLP2, an experiment was performed to determine if purified mouse SLLP2 would bind to Zona intact mouse eggs. […] Competitive assays were then performed to determine whether the addition of recombinant mouse SLLP2 to a mixture of mouse sperm and mouse eggs could inhibit binding of sperm and eggs. Various amounts of recombinant mouse SLLP2 were added (5, 25, 50, 100, and 200 μg/ml) and the number of sperm bound per egg was determined.

c1cnc2c(c1)ccc1cccnc12 [1,10-phenanthroline]
sperm-egg binding [1]: without reducing sperm-egg binding
sperm-egg fusion [1]: inhibited mouse sperm-egg fusion
binding of acrosome reacted sperm to the oolemma [2]: no effect
block of membrane fusion [2]: 95%

chicken lysozyme: conventional chicken c lysozyme used as comparator
fluorescence of mouse oocytes after incubation with protein and respective antibody [3]: did not show any fluorescence

human lysozyme: conventional human c lysozyme used as comparator
fluorescence of mouse oocytes after incubation with protein and respective antibody [3]: did not show any fluorescence

B1: rSAS1R: mature recombinant mouse SAS1R (414 residues; SEQ ID NO:6) expressed in E. coli with histidine tag, affinity purified (protein, listed as Mus musculus)
chain: T1 sequence (Q6HA09 22-435)
modifications: His tag
proteolytic activity ([4]; 200-2000 ng rSAS1R in 100 μl assay, FRET, up to 24 h): dose dependent proteolytic activity
time until protease activity appeared ([4]; fluorescence measured over 24 h): ≤ 1 h
binding to sperm [5]: binds to acrosome of sperm and co-localizes with native SLLP1
reduction in fertilization ([6]; 10 μg/ml rSAS1R): not statistically significant
reduction in fertilization ([6]; 25 μg/ml rSAS1R, P≦0.03, two cell embryos scored): 89%

B2: human SLLP1: human sperm lysozyme-like protein 1 (SEQ ID NO:14) (protein, listed as Homo sapiens)
chain: MVSALRGAPLIRVHSSPVSSPSVSGPRRLVSCLSSQSSALSQSGGGSTSAAGIEARSRALRRRWCPAGIMLLALVCLLSCLLPSSEAKLYGRCELARVLHDFGLDGYRGYSLADWVCLAYFTSGFNAAALDYEADGSTNNGIFQINSRRWCSNLTPNVPNVCRMYCSDLLNPNLKDTVICAMKITQEPQGLGYWEAWRHHCQGKDLTEWVDGCDF
sperm-egg binding and fusion [7]: maximally inhibited

B3: human SLLP2: recombinant human SLLP2 expressed in E. coli (SEQ ID NO:18) (protein, listed as Homo sapiens)
chain: MKAWGTVVVTLATLMVVTVDAKIYERCELAARLERAGLNGYKGYGVGDWLCMAHYESGFDTAFVDHNPDGSSEYGIFQLNSAWWCDNGITPTKNLCHMDCHDLLNRHILDDIRCAKQIVSSQNGLSAWTSWRLHCSGHDLSEWLKGCDMHVKIDPKIHP
binding to mouse eggs (cross-species) [8]: can indeed bind with mouse eggs
